Results taken from patent US20260274955A1 (JANUX THERAPEUTICS, published 2026).

Assays:
[1] = molecular target: T1, Anti-CD28 Fab (SEQ ID NOs: 202, 203); assay: phage ELISA, Fab on plate;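 also: crude clonal phage supernatants added to wells pretreated with blocking buffer with or without CD28 antigen, then bound phage read out via HRP-linked anti-M13 antibody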
T1 construct: biotinylated and captured on neutravidin coated plates in the phage ELISA

[2] = molecular target: T1, Anti-CD28 Fab (SEQ ID NOs: 202, 203); assay: phage ELISA, Fab on plate, CD28 antigen as competitor
Method: After panning, phage infected bacteria were plated out and colonies picked into 96 well blocks. Clonal phage was then amplified and separated from bacterial cells via centrifugation.
Clonal phage were harvested as crude supernatants and screened via standard ELISAs. […] Prior to the addition of clonal phage, wells were incubated with blocking buffer and CD28 antigen or blocking buffer alone. Without washing or aspirating, clonal phage supernatants were then added to the wells and incubated for a short time. Wells were then washed followed by detection of bound phage using a horse radish conjugated anti-M13 antibody. Clonal phage of interest were then sent for sequence analysis.

T1 sequence (VH, as listed by the source, chain 1 of 2): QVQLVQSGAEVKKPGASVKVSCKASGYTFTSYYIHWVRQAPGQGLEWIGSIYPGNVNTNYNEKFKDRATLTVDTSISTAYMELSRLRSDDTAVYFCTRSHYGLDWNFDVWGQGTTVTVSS
T1 sequence (VL, as listed by the source, chain 2 of 2): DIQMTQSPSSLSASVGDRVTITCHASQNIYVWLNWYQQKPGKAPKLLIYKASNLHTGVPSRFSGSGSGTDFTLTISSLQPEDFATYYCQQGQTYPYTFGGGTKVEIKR

| Binder | Anti-CD28 Fab (SEQ ID NOs: 202, 203) signal [1] | Anti-CD28 Fab signal in the presence of CD28 [2] |
| --- | --- | --- |
| YCAGHMPIYMTKCL [Phage-667] | 1.3 | 0.08 |
| YCDGHMVQYMAKCL [Phage-639] | 1.36 | 0.07 |
| YCAGHASEYMAKCL [Phage-650] | 1.33 | 0.08 |
| YCMGHLPIYMEKCL [Phage-670] | 1.28 | 0.05 |
| YCEGHLPMYMQKCL [Phage-660] | 1.31 | 0.08 |
| YCAGHLPMYMQKCL [Phage-653] | 1.33 | 0.08 |
| YCEGHLPMYMTKCL [Phage-686] | 1.25 | 0.06 |
| YCEGHLEIYLAKCL [Phage-655] | 1.32 | 0.07 |
| YCSEHQIIFIQKCL [Phage-654] | 1.32 | 0.08 |
| YCEGHSTEYMAKCL [Phage-676] | 1.27 | 0.06 |
| YCEGHSEEYMAKCL [Phage-682] | 1.26 | 0.07 |
| YCEGHLPRYMLKCL [Phage-671] | 1.28 | 0.3 |
| YCDGHLLQYMHKCL [Phage-644] | 1.35 | 0.07 |
| YCDGHRAEYMLKCL [Phage-668] | 1.29 | 0.08 |
| YCDGHIPEYMTKCL [Phage-661] | 1.31 | 0.06 |
| YCEGHSPEYMHKCL [Phage-647] | 1.34 | 0.09 |
| YCDGHSEEFMWKCL [Phage-640] | 1.35 | 0.06 |
| YCDGHLSIYMTKCL [Phage-638] | 1.36 | 0.07 |
| YCDGHAPQYMAKCI [Phage-665] | 1.3 | 0.06 |
| YCAGHALEYMGKCL [Phage-657] | 1.32 | 0.06 |
| YCEGHLPAYMGKCI [Phage-632] | 1.37 | 0.09 |
| YCDGHLALYMWKCL [Phage-637] | 1.36 | 0.17 |
| YCEGHLPAYMWKCL [Phage-659] | 1.31 | 0.08 |

| Binder | Anti-CD28 Fab (SEQ ID NOs: 202, 203) signal [1] | Anti-CD28 Fab signal in the presence of CD28 [2] |
| --- | --- | --- |
| YCDGHLSEYIGKCL [Phage-629] | 1.37 | 0.06 |
| YCEGHSSQWMWKCL [Phage-674] | 1.27 | 0.09 |
| YCEGHSQLYMAKCL [Phage-630] | 1.37 | 0.07 |
| YCDGHMKEYMLKCL [Phage-635] | 1.36 | 0.06 |
| YCDGHSEAYIEKCL [Phage-648] | 1.34 | 0.06 |
| YCDGHLPRYMAKCL [Phage-642] | 1.35 | 0.1 |
| YCDGHLPDYMAKCL [Phage-712] | 1.17 | 0.07 |
| YCDGHSPAYLQKCL [Phage-673] | 1.28 | 0.06 |
| YCQGHSVEHMAKCL [Phage-666] | 1.3 | 0.06 |
| YCDGHLEVYMDKCL [Phage-672] | 1.28 | 0.07 |
| YCDGHAPQYMRKCL [Phage-651] | 1.33 | 0.08 |
| YCEGHSAVYMSKCL [Phage-663] | 1.31 | 0.06 |
| YCEGHSLEYMMKCV [Phage-664] | 1.3 | 0.07 |
| YCEGHMEKYMEKCL [Phage-641] | 1.35 | 0.11 |
| YCDGHSETYLWKCL [Phage-631] | 1.37 | 0.1 |
| YCDGHSKEYMAKCL [Phage-646] | 1.34 | 0.06 |
| YCEGHLPEYMIKCL [Phage-658] | 1.32 | 0.06 |
| YCDGHVKEYMYKCL [Phage-636] | 1.36 | 0.06 |
| YCAGHTSEYMSKCL [Phage-634] | 1.36 | 0.07 |
| YCEGHLVQYMQKCL [Phage-669] | 1.28 | 0.06 |
| YCEGHDVQYMQKCL [Phage-749] | 1.06 | 0.08 |
| YCEGHFPLYMNKCL [Phage-675] | 1.27 | 0.08 |
| YCDGHLPLYMQKCF [Phage-652] | 1.33 | 0.1 |
